Blank lines part the entries; values can stand above or below the substance they belong to.
Legend:
ERβ = ERβ (Homo sapiens, UniProt Q92731); experiment: Phage ELISA / fingerprint on ER immobilized on biotinylated ERE (Examples 2.3-2.5); type: binding; set-up: purchased PanVera Corporation, Madison, WI; key: semiquantitative scale of 0 to 7+; 1+: semiquantitative scale of 0 to 7+; 2+: semiquantitative scale of 0 to 7+; 3+: semiquantitative scale of 0 to 7+; 4+: semiquantitative scale of 0 to 7+; 5+: semiquantitative scale of 0 to 7+; 6+: semiquantitative scale of 0 to 7+; semiquantitative scale of 0 to 7+; settings: for binding activity, ERβ and Estradiol: ERβ and Estradiol (1 µM); for binding activity, ERβ and tamoxifen: ERβ and tamoxifen (4-OH tamoxifen, 1 µM)
Sequence of ERβ (Q92731 whole entry): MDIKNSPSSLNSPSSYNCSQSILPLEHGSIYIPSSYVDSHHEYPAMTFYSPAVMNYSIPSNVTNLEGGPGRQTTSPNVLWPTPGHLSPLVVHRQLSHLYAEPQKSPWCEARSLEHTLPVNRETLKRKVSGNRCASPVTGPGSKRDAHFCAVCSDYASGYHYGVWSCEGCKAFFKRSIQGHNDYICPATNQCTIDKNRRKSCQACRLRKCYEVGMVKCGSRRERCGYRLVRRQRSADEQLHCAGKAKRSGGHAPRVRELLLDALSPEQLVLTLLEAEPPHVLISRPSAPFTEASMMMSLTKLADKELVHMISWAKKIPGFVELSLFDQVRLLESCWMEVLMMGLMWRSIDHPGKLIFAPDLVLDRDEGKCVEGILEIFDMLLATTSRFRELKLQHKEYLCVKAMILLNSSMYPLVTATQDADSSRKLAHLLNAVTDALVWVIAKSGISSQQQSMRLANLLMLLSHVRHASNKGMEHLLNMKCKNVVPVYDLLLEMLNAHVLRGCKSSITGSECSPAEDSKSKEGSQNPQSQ

ERα = biological target: T1, ERα (Homo sapiens, UniProt P03372); experiment: as above; type: binding; set-up: purchased PanVera Corporation, Madison, WI; key to binding activity, ERα and buffer / binding activity, ERα and estradiol / binding activity, ERα and tamoxifen / binding of peptide, Class Specific Fingerprint on ERα: semiquantitative scale of 0 to 7+; 1+: semiquantitative scale of 0 to 7+; 2+: semiquantitative scale of 0 to 7+; 3+: semiquantitative scale of 0 to 7+; 4+: semiquantitative scale of 0 to 7+; 5+: semiquantitative scale of 0 to 7+; 6+: semiquantitative scale of 0 to 7+; semiquantitative scale of 0 to 7+; settings: for binding activity, ERα and estradiol: ERα and estradiol (1 µM); for binding activity, ERα and tamoxifen: ERα and tamoxifen (4-OH tamoxifen, 1 µM)
T1 sequence (P03372 1-595): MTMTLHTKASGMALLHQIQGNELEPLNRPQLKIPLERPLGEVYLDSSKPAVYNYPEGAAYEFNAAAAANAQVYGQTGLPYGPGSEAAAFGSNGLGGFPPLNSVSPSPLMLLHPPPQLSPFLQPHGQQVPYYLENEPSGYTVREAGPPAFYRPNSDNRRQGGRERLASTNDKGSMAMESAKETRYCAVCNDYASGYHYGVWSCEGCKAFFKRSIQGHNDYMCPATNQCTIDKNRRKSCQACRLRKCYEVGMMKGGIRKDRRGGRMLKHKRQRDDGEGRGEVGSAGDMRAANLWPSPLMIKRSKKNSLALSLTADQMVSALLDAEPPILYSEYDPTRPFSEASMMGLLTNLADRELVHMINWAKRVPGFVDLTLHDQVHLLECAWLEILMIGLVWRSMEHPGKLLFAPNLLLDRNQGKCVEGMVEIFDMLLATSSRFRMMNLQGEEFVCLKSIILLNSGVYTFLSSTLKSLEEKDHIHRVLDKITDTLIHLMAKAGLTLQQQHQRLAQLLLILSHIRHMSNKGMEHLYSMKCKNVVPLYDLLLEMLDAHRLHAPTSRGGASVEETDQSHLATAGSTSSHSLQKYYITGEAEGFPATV

[1] = 4-OH Tamoxifen present during binding
[2] = 16a-OH Estrone present during binding
[3] = Clomiphene present during binding
[4] = Estradiol present during binding
[5] = ICI 182,780 present during binding
[6] = Nafoxidine present during binding
[7] = Premarin present during binding
[8] = Progesterone present during binding
[9] = Raloxifene present during binding

- binding activity, ERβ and Estradiol (ERβ): 6+
- binding activity, ERβ and buffer (ERβ): 6+
- binding activity, ERβ and tamoxifen (ERβ): 7+
- binding activity, ERα and buffer (ERα): 4+
- binding activity, ERα and estradiol (ERα): 4+
- binding activity, ERα and tamoxifen (ERα): 6+
Substance: SSDLYSQMREFFQINLSR [Peptide 23t-β]

- binding activity, ERβ and Estradiol (ERβ): 7+
- binding activity, ERβ and buffer (ERβ): 5+
- binding activity, ERβ and tamoxifen (ERβ): 2+
- binding activity, ERα and buffer (ERα): 5+
- binding activity, ERα and estradiol (ERα): 6+
- binding activity, ERα and tamoxifen (ERα): 4+
Substance: SRPEGSSWLLHYLSR [Peptide 24E-β]

Substance: SRLEDLLRGDSKPQSR [Peptide 7E-β]
- binding activity, ERβ and Estradiol (ERβ): 6+
- binding activity, ERβ and buffer (ERβ): 5+
- binding activity, ERβ and tamoxifen (ERβ): 1+
- binding activity, ERα and buffer (ERα): 4+
- binding activity, ERα and estradiol (ERα): 6+
- binding activity, ERα and tamoxifen (ERα): 3+

- binding activity, ERβ and Estradiol (ERβ): 2+
- binding activity, ERβ and buffer (ERβ): 6+
- binding activity, ERβ and tamoxifen (ERβ): 2+
- binding activity, ERα and buffer (ERα): 5+
- binding activity, ERα and estradiol (ERα): 3+
- binding activity, ERα and tamoxifen (ERα): 3+
Substance: SSGLPPNFERMLKSR [Peptide 6b-β]

- binding activity, ERβ and Estradiol (ERβ): 7+
- binding activity, ERβ and buffer (ERβ): 7+
- binding activity, ERβ and tamoxifen (ERβ): 7+
- binding activity, ERα and buffer (ERα): 1+
- binding activity, ERα and estradiol (ERα): 2+
- binding activity, ERα and tamoxifen (ERα): 2+
Substance: SSDLHRDCLGVWCLSR [Peptide 17t-β]

- binding activity, ERβ and Estradiol (ERβ): 4+
- binding activity, ERβ and buffer (ERβ): 7+
- binding activity, ERβ and tamoxifen (ERβ): 5+
- binding activity, ERα and buffer (ERα): 2+
- binding activity, ERα and estradiol (ERα): 3+
- binding activity, ERα and tamoxifen (ERα): 3+
Substance: SSSLGPWRLSELESR [Peptide 16b-β]

- binding activity, ERβ and Estradiol (ERβ): 6+
- binding activity, ERβ and buffer (ERβ): 2+
- binding activity, ERβ and tamoxifen (ERβ): 1+
- binding activity, ERα and buffer (ERα): 5+
- binding activity, ERα and estradiol (ERα): 4+
- binding activity, ERα and tamoxifen (ERα): 5+
Substance: SSGSSAGRLMMLLQDGVSR [Peptide 13E-β]

- binding of peptide, Class Specific Fingerprint on ERβ (ERβ; [1]): 7+
- binding of peptide, Class Specific Fingerprint on ERβ (ERβ; [2]): 1+
- binding of peptide, Class Specific Fingerprint on ERβ (ERβ; [3]): 5+
- binding of peptide, Class Specific Fingerprint on ERβ (ERβ; DES present during binding): 1+
- binding of peptide, Class Specific Fingerprint on ERβ (ERβ; [4]): 1+
- binding of peptide, Class Specific Fingerprint on ERβ (ERβ; Estriol present during binding): 1+
- binding of peptide, Class Specific Fingerprint on ERβ (ERβ; [5]): 1+
- binding of peptide, Class Specific Fingerprint on ERβ (ERβ; [6]): 3+
- binding of peptide, Class Specific Fingerprint on ERβ (ERβ; [7]): 1+
- binding of peptide, Class Specific Fingerprint on ERβ (ERβ; [8]): 1+
- binding of peptide, Class Specific Fingerprint on ERβ (ERβ; [9]): 6+
- binding of peptide, Class Specific Fingerprint on ERβ (ERβ; buffer present during binding): 2+
- binding of peptide, Class Specific Fingerprint on ERα (ERα; [1]): 7+
- binding of peptide, Class Specific Fingerprint on ERα (ERα; [2]): 2+
- binding of peptide, Class Specific Fingerprint on ERα (ERα; [3]): 6+
- binding of peptide, Class Specific Fingerprint on ERα (ERα; DES present during binding): 1+
- binding of peptide, Class Specific Fingerprint on ERα (ERα; [4]): 1+
- binding of peptide, Class Specific Fingerprint on ERα (ERα; Estriol present during binding): 1+
- binding of peptide, Class Specific Fingerprint on ERα (ERα; [5]): 1+
- binding of peptide, Class Specific Fingerprint on ERα (ERα; [6]): 4+
- binding of peptide, Class Specific Fingerprint on ERα (ERα; [7]): 2+
- binding of peptide, Class Specific Fingerprint on ERα (ERα; [8]): 2+
- binding of peptide, Class Specific Fingerprint on ERα (ERα; [9]): 4+
- binding of peptide, Class Specific Fingerprint on ERα (ERα; buffer present during binding): 1+
Substance: SWDMHQFFWEGVSR [Peptide 2PT]

- binding activity, ERβ and Estradiol (ERβ): 7+
- binding activity, ERβ and buffer (ERβ): 7+
- binding activity, ERβ and tamoxifen (ERβ): 7+
- binding activity, ERα and buffer (ERα): 2+
- binding activity, ERα and estradiol (ERα): 2+
- binding activity, ERα and tamoxifen (ERα): 2+
Substance: SSARPWWLQFEGSSR [Peptide 7t-β]

- binding activity, ERβ and Estradiol (ERβ): 7+
- binding activity, ERβ and buffer (ERβ): 5+
- binding activity, ERβ and tamoxifen (ERβ): 3+
- binding activity, ERα and buffer (ERα): 5+
- binding activity, ERα and estradiol (ERα): 7+
- binding activity, ERα and tamoxifen (ERα): 5+
Substance: SSRGLLWDLLTKDSR [Peptide 1E-β]

- binding activity, ERβ and Estradiol (ERβ): 7+
- binding activity, ERβ and buffer (ERβ): 7+
- binding activity, ERβ and tamoxifen (ERβ): 3+
- binding activity, ERα and buffer (ERα): 6+
- binding activity, ERα and estradiol (ERα): 7+
- binding activity, ERα and tamoxifen (ERα): 3+
Substance: SSKLYCLLDESYCSR [Peptide 21b-β]

- binding activity, ERβ and Estradiol (ERβ): 5+
- binding activity, ERβ and buffer (ERβ): 7+
- binding activity, ERβ and tamoxifen (ERβ): 5+
- binding activity, ERα and buffer (ERα): 2+
- binding activity, ERα and estradiol (ERα): 2+
- binding activity, ERα and tamoxifen (ERα): 2+
Substance: SSQEEWLLPWRLASR [Peptide 8t-β]

- binding activity, ERβ and Estradiol (ERβ): 2+
- binding activity, ERβ and buffer (ERβ): 5+
- binding activity, ERβ and tamoxifen (ERβ): 4+
- binding activity, ERα and buffer (ERα): 2+
- binding activity, ERα and estradiol (ERα): 2+
- binding activity, ERα and tamoxifen (ERα): 3+
Substance: SSSGPWRWGLSIESR [Peptide 17b-β]

- binding activity, ERβ and Estradiol (ERβ): 7+
- binding activity, ERβ and buffer (ERβ): 5+
- binding activity, ERβ and tamoxifen (ERβ): 2+
- binding activity, ERα and buffer (ERα): 5+
- binding activity, ERα and estradiol (ERα): 7+
- binding activity, ERα and tamoxifen (ERα): 5+
Substance: SREGLLMRLLIGDSR [Peptide 14E-β]

- binding activity, ERβ and Estradiol (ERβ): 7+
- binding activity, ERβ and buffer (ERβ): 3+
- binding activity, ERβ and tamoxifen (ERβ): 1+
- binding activity, ERα and buffer (ERα): 3+
- binding activity, ERα and estradiol (ERα): 5+
- binding activity, ERα and tamoxifen (ERα): 3+
Substance: SRLEELLRVGVLTSR [Peptide 6E-β]

- binding activity, ERβ and Estradiol (ERβ): 2+
- binding activity, ERβ and buffer (ERβ): 5+
- binding activity, ERα and buffer (ERα): 5+
- binding activity, ERα and estradiol (ERα): 3+
- binding activity, ERα and tamoxifen (ERα): 3+
Substance: SSWPNPTFWERQLSR [Peptide 3b-β]

- binding activity, ERβ and Estradiol (ERβ): 7+
- binding activity, ERβ and buffer (ERβ): 4+
- binding activity, ERβ and tamoxifen (ERβ): 2+
- binding activity, ERα and buffer (ERα): 6+
- binding activity, ERα and estradiol (ERα): 7+
- binding activity, ERα and tamoxifen (ERα): 5+
Substance: SRHGILWDLLQGDSR [Peptide 2E-β]

- binding activity, ERβ and Estradiol (ERβ): 2+
- binding activity, ERβ and buffer (ERβ): 6+
- binding activity, ERβ and tamoxifen (ERβ): 7+
- binding activity, ERα and buffer (ERα): 3+
- binding activity, ERα and estradiol (ERα): 2+
- binding activity, ERα and tamoxifen (ERα): 5+
Substance: SSVASREWWVRELSR [Peptide 15t-β]

- binding activity, ERβ and Estradiol (ERβ): 6+
- binding activity, ERβ and buffer (ERβ): 7+
- binding activity, ERβ and tamoxifen (ERβ): 7+
- binding activity, ERα and buffer (ERα): 2+
- binding activity, ERα and estradiol (ERα): 2+
- binding activity, ERα and tamoxifen (ERα): 3+
Substance: SRPGCLRGVWCLADTPPSR [Peptide 20t-β]

- binding activity, ERβ and Estradiol (ERβ): 7+
- binding activity, ERβ and buffer (ERβ): 3+
- binding activity, ERβ and tamoxifen (ERβ): 2+
- binding activity, ERα and buffer (ERα): 4+
- binding activity, ERα and estradiol (ERα): 3+
- binding activity, ERα and tamoxifen (ERα): 3+
Substance: SSTRLMCWLGSADTSHCSR [Peptide 28E-β]

- binding activity, ERβ and Estradiol (ERβ): 7+
- binding activity, ERβ and buffer (ERβ): 7+
- binding activity, ERβ and tamoxifen (ERβ): 7+
- binding activity, ERα and buffer (ERα): 2+
- binding activity, ERα and estradiol (ERα): 2+
- binding activity, ERα and tamoxifen (ERα): 3+
Substance: HSWLGPWRLSSIDLGG [Peptide 24b-β]

- binding of peptide, Class Specific Fingerprint on ERα (ERα; [1]): 6+
- binding of peptide, Class Specific Fingerprint on ERα (ERα; [2]): 2+
- binding of peptide, Class Specific Fingerprint on ERα (ERα; [3]): 5+
- binding of peptide, Class Specific Fingerprint on ERα (ERα; DES present during binding): 3+
- binding of peptide, Class Specific Fingerprint on ERα (ERα; [4]): 2+
- binding of peptide, Class Specific Fingerprint on ERα (ERα; Estriol present during binding): 2+
- binding of peptide, Class Specific Fingerprint on ERα (ERα; [5]): 2+
- binding of peptide, Class Specific Fingerprint on ERα (ERα; [6]): 2+
- binding of peptide, Class Specific Fingerprint on ERα (ERα; [7]): 2+
- binding of peptide, Class Specific Fingerprint on ERα (ERα; [8]): 4+
- binding of peptide, Class Specific Fingerprint on ERα (ERα; [9]): 2+
- binding of peptide, Class Specific Fingerprint on ERα (ERα; buffer present during binding): 5+
Substance: S R T W E S P L G T W E W S R (SRTWESPLGTWEWSR) [#13 ER]

Reference: patent EP1073891B1, “METHOD OF PREDICTING RECEPTOR MODULATING ACTIVITY” (Duke University, priority 1998, dated 1999)
